{
  "source": "paper PMC3269570",
  "about": "(European Biophysics Journal, 2011)",
  "molecular_target": "the molecule itself",
  "experiment": "cross-linking",
  "data": [
    {"protein": "MQRINKNVVLALLTLTSSAFLLFQLYYYKHYLSARN", "note": "[N-terminal transmembrane domain of Fukutin-I (FK1TMD), unlabelled peptide]", "values": [
      {"measurement": "stoichiometry N", "value": 2}
    ]}
  ]
}
